Reference: the supplement of paper PMC9112550, “Optimization of the antimicrobial peptide Bac7 by deep mutational scanning” (BMC Biology, 2022)

Test system: Escherichia coli TOP10
Test: shrunken log2 fold change of peptide-encoding DNA abundance (4.5 h post-induction vs induction); higher = less antimicrobial activity (less host growth inhibition)
Settings: time post-induction: 4.5 h; library: site-saturation at positions 5, 18, 19, 20
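Note: peptides expressed intracellularly from a pBAD plasmid library in pooled LB shake-flask culture, induced with 0.3% L-arabinose, DNA abundance read by NGS, three biological replicates, DESeq2 with apeglm shrinkage.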

Sequence | shrunken log2 fold change
RRIRVRPPRLPRPRPRPGLSPRP | 0.32
RRIRVRPPRLPRPRPRPNFPPRP | 0.0508
RRIRIRPPRLPRPRPRPILFPRP | -0.273
RRIRIRPPRLPRPRPRPSRDPRP | -0.0607
RRIRQRPPRLPRPRPRPKAWPRP | -0.0334
RRIRCRPPRLPRPRPRPHNVPRP | -0.194
RRIRCRPPRLPRPRPRPLYFPRP | -0.836
RRIRPRPPRLPRPRPRPTDEPRP | -0.128
RRIRQRPPRLPRPRPRPIDWPRP | 1.59e-05
RRIRERPPRLPRPRPRPVKGPRP | 0.0229
RRIRDRPPRLPRPRPRPYVDPRP | -0.0902
RRIRIRPPRLPRPRPRPTFQPRP | -0.0244
RRIRVRPPRLPRPRPRPDTNPRP | -0.479
RRIRCRPPRLPRPRPRPRPAPRP | 0.834
RRIRQRPPRLPRPRPRPQTHPRP | -0.293
RRIRWRPPRLPRPRPRPIDYPRP | -0.235
RRIRHRPPRLPRPRPRPTADPRP | 0.202
RRIRTRPPRLPRPRPRPWTCPRP | -0.0449
RRIRGRPPRLPRPRPRPKHDPRP | 0.466
RRIRHRPPRLPRPRPRPPMHPRP | -0.0169
RRIRERPPRLPRPRPRPRNLPRP | -0.514
RRIRMRPPRLPRPRPRPLTWPRP | 0.308
RRIRNRPPRLPRPRPRPHMCPRP | -0.0575
RRIRDRPPRLPRPRPRPDTWPRP | 0.335
RRIRKRPPRLPRPRPRPPRDPRP | 1.01

Sequence | shrunken log2 fold change
RRIRQRPPRLPRPRPRPYCKPRP | -0.257
RRIRCRPPRLPRPRPRPFKNPRP | -0.967
RRIRYRPPRLPRPRPRPKGKPRP | -0.215
RRIRWRPPRLPRPRPRPIRLPRP | -0.268
RRIRFRPPRLPRPRPRPKPYPRP | -0.109
RRIRERPPRLPRPRPRPPPFPRP | 0.313
RRIRARPPRLPRPRPRPPFKPRP | 0.368
RRIRYRPPRLPRPRPRPAGCPRP | -0.177
RRIRLRPPRLPRPRPRPTWYPRP | -0.221
RRIRKRPPRLPRPRPRPTMEPRP | 0.204
RRIRPRPPRLPRPRPRPISSPRP | -0.0101
RRIRSRPPRLPRPRPRPGTQPRP | 0.00256
RRIRARPPRLPRPRPRPGNPPRP | 0.167
RRIRYRPPRLPRPRPRPVAFPRP | -0.717
RRIRGRPPRLPRPRPRPQGQPRP | 0.414
RRIRDRPPRLPRPRPRPPFDPRP | 0.422
RRIRRRPPRLPRPRPRPPDWPRP | 0.618
RRIRMRPPRLPRPRPRPTCWPRP | 0.816
RRIRARPPRLPRPRPRPKVHPRP | 0.491
RRIRIRPPRLPRPRPRPFWIPRP | -0.193
RRIRRRPPRLPRPRPRPDASPRP | 0.0354
RRIRLRPPRLPRPRPRPHGNPRP | -0.186
RRIRQRPPRLPRPRPRPCYVPRP | -0.0541
RRIRDRPPRLPRPRPRPRSIPRP | -0.0279
RRIRKRPPRLPRPRPRPISHPRP | 0.17

Sequence | shrunken log2 fold change
RRIRCRPPRLPRPRPRPNYVPRP | -0.304
RRIRPRPPRLPRPRPRPQLGPRP | 0.159
RRIRARPPRLPRPRPRPHAGPRP | 0.122
RRIRSRPPRLPRPRPRPLGYPRP | -0.351
RRIRTRPPRLPRPRPRPDEVPRP | -0.0587
RRIRMRPPRLPRPRPRPVMFPRP | 0.199
RRIRYRPPRLPRPRPRPACYPRP | -0.553
RRIRYRPPRLPRPRPRPTTLPRP | -0.0157
RRIRARPPRLPRPRPRPQMEPRP | -0.154
RRIRQRPPRLPRPRPRPIPRPRP | 0.145
RRIRSRPPRLPRPRPRPQRTPRP | -0.036
RRIRKRPPRLPRPRPRPGVGPRP | 0.818
RRIRMRPPRLPRPRPRPWRLPRP | -0.0743
RRIRGRPPRLPRPRPRPRGSPRP | 0.832
RRIRRRPPRLPRPRPRPVSWPRP | 0.849
RRIRNRPPRLPRPRPRPFNSPRP | -0.0382
RRIRYRPPRLPRPRPRPIKMPRP | -0.666
RRIRLRPPRLPRPRPRPNWTPRP | -0.084
RRIRRRPPRLPRPRPRPRNQPRP | -0.0577
RRIRRRPPRLPRPRPRPMHCPRP | 0.505
RRIRERPPRLPRPRPRPAENPRP | -0.27
RRIRFRPPRLPRPRPRPSPEPRP | 0.24
RRIRFRPPRLPRPRPRPFSQPRP | -0.452
RRIRSRPPRLPRPRPRPELDPRP | 0.674
RRIRDRPPRLPRPRPRPASPPRP | 0.384

Sequence | shrunken log2 fold change
RRIRNRPPRLPRPRPRPRGLPRP | 0.342
RRIRQRPPRLPRPRPRPENLPRP | -0.0164
RRIRRRPPRLPRPRPRPEGSPRP | 0.223
RRIRPRPPRLPRPRPRPACAPRP | 0.593
RRIRKRPPRLPRPRPRPSECPRP | -0.0384
RRIRFRPPRLPRPRPRPICEPRP | -0.0168
RRIRYRPPRLPRPRPRPVATPRP | -0.281
RRIRMRPPRLPRPRPRPSEGPRP | -0.00192
RRIRDRPPRLPRPRPRPRDHPRP | 0.0411
RRIRNRPPRLPRPRPRPPVKPRP | -0.123
RRIRYRPPRLPRPRPRPCLYPRP | -0.783
RRIRRRPPRLPRPRPRPRAWPRP | -0.0407
RRIRGRPPRLPRPRPRPDQAPRP | 0.925
RRIRDRPPRLPRPRPRPVRCPRP | 0.339
RRIRIRPPRLPRPRPRPSFNPRP | -0.838
RRIRNRPPRLPRPRPRPAKLPRP | -0.153
RRIRHRPPRLPRPRPRPDSAPRP | -0.216
RRIRIRPPRLPRPRPRPPKWPRP | -0.00369
RRIRRRPPRLPRPRPRPMLWPRP | -0.0161
RRIRKRPPRLPRPRPRPTNHPRP | -0.0148
RRIRQRPPRLPRPRPRPMVEPRP | 0.168
RRIRRRPPRLPRPRPRPEMLPRP | 0.0638
RRIRCRPPRLPRPRPRPCPGPRP | -0.191
RRIRRRPPRLPRPRPRPKRHPRP | 0.227
RRIRMRPPRLPRPRPRPKWHPRP | 0.349

Sequence | shrunken log2 fold change
RRIRQRPPRLPRPRPRPEKIPRP | 2.55
RRIRLRPPRLPRPRPRPYVMPRP | -0.194
RRIRGRPPRLPRPRPRPPKYPRP | 0.0508
RRIRERPPRLPRPRPRPHGKPRP | -0.0244
RRIRNRPPRLPRPRPRPTVVPRP | 0.229
RRIRKRPPRLPRPRPRPLWGPRP | 0.115
RRIRCRPPRLPRPRPRPETPPRP | 1.91
RRIRRRPPRLPRPRPRPKCQPRP | 0.506
RRIRTRPPRLPRPRPRPKMHPRP | -0.0762
RRIRFRPPRLPRPRPRPNKPPRP | -0.00705
RRIRTRPPRLPRPRPRPGIIPRP | 0.0136
RRIRFRPPRLPRPRPRPESDPRP | 0.17
RRIRWRPPRLPRPRPRPHKEPRP | -0.0233
RRIRMRPPRLPRPRPRPHSHPRP | 0.0536
RRIRKRPPRLPRPRPRPCDDPRP | -0.0472
RRIRIRPPRLPRPRPRPIIMPRP | -0.34
RRIRNRPPRLPRPRPRPFGAPRP | 0.00377
RRIRNRPPRLPRPRPRPRDHPRP | -0.219
RRIRERPPRLPRPRPRPPICPRP | -0.302
RRIRMRPPRLPRPRPRPFCGPRP | -0.0687
RRIRDRPPRLPRPRPRPGDDPRP | 0.636
RRIRFRPPRLPRPRPRPPRQPRP | 0.828
RRIRGRPPRLPRPRPRPDQMPRP | 0.633
RRIRDRPPRLPRPRPRPKANPRP | 0.091
RRIRKRPPRLPRPRPRPTSHPRP | 0.37
